# Tests used:
# Assay in all cases: cells, lysate or membranes
# Type in all cases: biochemical, Lactococcus lactis
# [1] = substrate: CC(C)CC(=O)C(=O)O; settings: cell extract of ammonium-grown cells, pH 7.0, 30 °C, 0.2 mM thiamine pyrophosphate, 5 mM MgCl2
# [2] = substrate: CC[C@H](C)C(=O)C(=O)O; settings: cell extract of ammonium-grown cells, pH 7.0, 30 °C, 0.2 mM thiamine pyrophosphate, 5 mM MgCl2
# [3] = substrate: CC(C)C(=O)C(=O)O; settings: cell extract of ammonium-grown cells, pH 7.0, 30 °C, 0.2 mM thiamine pyrophosphate, 5 mM MgCl2, cooperative, Hill equation
protein,measurement,setting,value
"KivD (Lactococcus lactis subsp. lactis) (protein, full-length ORF, codon optimised, no tag mentioned; TDH3 promoter plasmid pUDE336 in S. cerevisiae IME262 (pdc1 pdc5 pdc6 aro10 deleted); cell extract) MYTVGDYLLDRLHELGIEEIFGVPGDYNLQFLDQIISHKDMKWVGNANELNASYMADGYARTKKAAAFLTTFGVGELSAVNGLAGSYAENLPVVEIVGSPTSKVQNEGKFVHHTLADGDFKHFMKMHEPVTAARTLLTAENATVEIDRVLSALLKERKPVYINLPVDVAAAKAEKPSLPLKKENSTSNTSDQEILNKIQESLKNAKKPIVITGHEIISFGLEKTVTQFISKTKLPITTLNFGKSSVDEALPSFLGIYNGTLSEPNLKEFVESADFILMLGVKLTDSSTGAFTHHLNENKMISLNIDEGKIFNERIQNFDFESLISSLLDLSEIEYKGKYIDKKQEDFVPSNALLSQDRLWQAVENLTQSNETIVAEQGTSFFGASSIFLKSKSHFIGQPLWGSIGYTFPAALGSQIADKESRHLLFIGDGSLQLTVQELGLAIREKINPICFIINNDGYTVEREIHGPNQSYNDIPMWNYSKLPESFGATEDRVVSKIVRTENEFVSVMKEAQADPNRMYWIELILAKEGAPKVLKKMGKLFAEQNKS",Km,[1],2.42 ± 0.90 mM
same,Vmax,[1],0.04 µmol/min/mg
same,Vmax/Km,[1],17 µL/min/mg
same,Km,[2],12.9 ± 2.87 mM
same,Vmax,[2],0.05 µmol/min/mg
same,Vmax/Km,[2],3.9 µL/min/mg
same,K0.5,[3],7.73 ± 1.62 mM
same,Vmax,[3],0.03 µmol/min/mg
same,Vmax/Km,[3],3.9 µL/min/mg

# Source: paper PMC4665922, “Comparative assessment of native and heterologous 2-oxo acid decarboxylases for application in isobutanol production by Saccharomyces cerevisiae” (Biotechnology for Biofuels, 2015)
